The values that follow come from patent publication US20150330991A1 (GWANGJU INSTITUTE OF SCIENCE AND TECHNOLOGY, published 2015).

Experiment [1] deals with T1, fibronectin extra domain B (ED-B) (UniProt P02751 1266-1356, biotinylated (biotin ED-B), site not stated).
T1 construct: domain: ED-B; Biotin-EDB captured on a streptavidin SA chip (2,000 RU) for SPR and on streptavidin-coated wells for ELISA; also called biotin ED-B; biotin-EDB
In words: SPR (Biacore X), biotin-EDB on a streptavidin SA chip. As to the method: (§1) The bipodal peptide binder found from BPB2EDB, BPB3EDB, and BPB4EDB maturation libraries were synthesized (Anygen, Korea). The affinity measurement was conducted using BIAcore X (Biacore AB, Uppsala, Sweden). 2,000 RU of biotin-EDB was allowed to flow on the streptavidin SA chip (Biacore) for immobilization. PBS (pH 7.4) was used as a running buffer, and kinetics at different concentrations was measured under a flow rate of 30 μl per minute. The affinity was calculated using BlAevaluation software (Biacore AB, Uppsala, Sweden).

Experiment [2] deals with T1, fibronectin extra domain B (ED-B). In words: SPR (BIAcore X), biotin-EDB on streptavidin SA chip, synthetic peptide as analyte; peptide 2. As to the method:
as §1
On the technique in general: SPR reads the build-up and loss of mass on a sensor chip optically.

Experiment [3] has as its target T2, BSA (bovine, UniProt P02769).
T2 construct: not further described; off-target control protein of the specificity ELISA
Put plainly: phage ELISA, wells coated with 5 µg/ml protein, anti-M13-HRP, absorbance at 450 nm. As to the method: In order to investigate specificities to streptavidin, of peptides (Strep_opti1 and Strep_opti2) obtained through sequencing, recombinant phages expressing these peptides were used to investigate specificities to streptavidin, BSA, ovalbumin, and VEGF. First, 5 μg/ml streptavidin, BSA, ovalbumin, and VEGF were put in a 96-well ELISA plate (50 μl per well), and then allowed to stand at 4° C. overnight. Next day, all the wells were washed three times with 0.1% PBST, and blocked at room temperature for 2 hrs using 2% BSA diluted with PBS. Then, the solution was discarded, followed by washing with 0.1% PBST three times. 800 μl of recombinant phages of each of Strep_opti1 and Strep_opti2 and 200 μl of 10% BSA were added thereto, and each 100 μl was dispensed into streptavidin, BSA, ovalbumin, and VEGF wells, followed by standing at 27° C. for 1 hr. After washing five times with 0.1% PBST solution, the HRP-conjugated anti-M13 antibody (GE Healthcare) was diluted to 1:1,000, and then the reaction was performed at 27° C. for 1 hr. After washing five times with 0.1% PBST, 100 μl of the TMB solution was dispensed into each well to induce a colorimetric reaction, and then the reaction was stopped by adding 100 μl of 1 M HCl. The absorbance was measured at 450 nm.

For experiment [4], the target named is T3, vascular endothelial growth factor receptor 1 (VEGFR1) (UniProt P17948 27-756, limits assumed).
T3 construct: Immobilised on a CM5 chip (7000 RU) for SPR; coated on plates for ELISA; also called VEGFR1 protein
In words: SPR (BIAcore X), from RU at 5 µM against the control's RU at 200 µM. As to the method: A VEGFR1-binding peptide optimized peptide and an existing peptide were synthesized (Anygen). The affinity measurement was conducted using BIAcore X (Biacore AB, Uppsala, Sweden). Here, 7000 RU of VEGFR1 was allowed to flow on the CM5 chip (Biacore) for immobilization. PBS (pH 7.4) was used as a running buffer, and the kinetics at different concentrations was measured under a flow rate of 30 μl per minute. The affinity was calculated using BlAevaluation software (Biacore AB, Uppsala, Sweden).
Optimized peptide VEGFR1_opti1 and control peptide GNQWFI were synthesized, and affinities thereof were measured using the SPR Biacore system.

In experiment [5] the target is T4, streptavidin (UniProt P22629 37-163, limits assumed).
T4 construct: Immobilised on a CM5 chip (2000 RU) for SPR; coated on plates for ELISA; also called streptavidin protein
In words: phage ELISA, wells coated with 5 µg/ml protein, anti-M13-HRP, absorbance at 450 nm. As to the method: In order to investigate specificities to streptavidin, of peptides (VEGFR1_opti1, VEGFR1_opti2, and VEGFR1_opti3) obtained through sequencing, recombinant phages expressing these peptides were used to investigate specificities to VEGFR1, VEGFR2, streptavidin, HSA, TNF, and VEGF. First, 5 μg/ml VEGFR1, VEGFR2, streptavidin, HSA, TNF, and VEGF were put in a 96-well ELISA plate (50 μl per well), and then allowed to stand at 4° C. overnight. The next day, all the wells were washed three times with 0.1% PBST, and blocked at room temperature for 2 hrs using 2% BSA diluted with PBS. Then, the whole solution was discarded, followed by washing three times with 0.1% PBST. 800 μl of recombinant phages of each of VEGFR1_opti1, VEGFR1_opti2, and VEGFR1_opti3 and 200 μl of 10% BSA were added thereto, and each 100 μl was dispensed into VEGFR1, VEGFR2, streptavidin, HSA, TNF, and VEGF wells, followed by standing at 27° C. for 1 hr. After washing five times with 0.1% PBST solution, the HRP-conjugated anti-M13 antibody (GE Healthcare) was diluted to 1:1,000, and then the reaction was performed at 27° C. for 1 hr. After washing with 0.1% PBST five times, 100 μl of the TMB solution was dispensed into each well to induce a colorimetric reaction, and then the reaction was stopped by adding 100 μl of 1 M HCl. The absorbance was measured at 450 nm.
On the technique in general: ELISA stands for enzyme-linked immunosorbent assay.

Experiment [6] addresses T1, fibronectin extra domain B (ED-B). In words: SPR (BIAcore X), biotin-EDB on streptavidin SA chip, synthetic peptide as analyte; peptide 1. As to the method: as §1
In experiment [7] the target is T4, streptavidin. In words: SPR (BIAcore X), streptavidin immobilised on CM5 chip, synthetic peptide as analyte. As to the method: (§2) A streptavidin-binding peptide optimized peptide and an existing peptide were synthesized (Anygen). The affinity measurement was conducted using BIAcore X (Biacore AB, Uppsala, Sweden). Here, 2000 RU of streptavidin was allowed to flow on the CM5 chip (Biacore) for immobilization. PBS (pH 7.4) was used as a running buffer, and the kinetics at different concentrations was measured under a flow rate of 30 μl per minute. The affinity was calculated using BlAevaluation software (Biacore AB, Uppsala, Sweden).
(§3) Optimized peptide Strep_opti1 and control peptide […] were synthesized, and affinities thereof were measured using the SPR Biacore system.

The target of experiment [8] is T1, fibronectin extra domain B (ED-B). Put plainly: SPR (BIAcore X), biotin-EDB on streptavidin SA chip.
Experiment [9] deals with T4, streptavidin. Put plainly: SPR (BIAcore X), ratio of KD values. As to the method:
as §2, §3

T4 sequence (P22629 37-163 limits assumed): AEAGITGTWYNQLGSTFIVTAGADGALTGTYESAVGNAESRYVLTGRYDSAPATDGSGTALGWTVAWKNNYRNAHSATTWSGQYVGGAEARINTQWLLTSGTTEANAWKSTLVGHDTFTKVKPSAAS
T1 sequence (P02751 1266-1356 limits assumed): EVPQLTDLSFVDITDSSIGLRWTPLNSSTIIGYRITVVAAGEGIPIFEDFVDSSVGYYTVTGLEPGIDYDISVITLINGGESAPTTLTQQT
T2 sequence (P02769 25-607 limits assumed): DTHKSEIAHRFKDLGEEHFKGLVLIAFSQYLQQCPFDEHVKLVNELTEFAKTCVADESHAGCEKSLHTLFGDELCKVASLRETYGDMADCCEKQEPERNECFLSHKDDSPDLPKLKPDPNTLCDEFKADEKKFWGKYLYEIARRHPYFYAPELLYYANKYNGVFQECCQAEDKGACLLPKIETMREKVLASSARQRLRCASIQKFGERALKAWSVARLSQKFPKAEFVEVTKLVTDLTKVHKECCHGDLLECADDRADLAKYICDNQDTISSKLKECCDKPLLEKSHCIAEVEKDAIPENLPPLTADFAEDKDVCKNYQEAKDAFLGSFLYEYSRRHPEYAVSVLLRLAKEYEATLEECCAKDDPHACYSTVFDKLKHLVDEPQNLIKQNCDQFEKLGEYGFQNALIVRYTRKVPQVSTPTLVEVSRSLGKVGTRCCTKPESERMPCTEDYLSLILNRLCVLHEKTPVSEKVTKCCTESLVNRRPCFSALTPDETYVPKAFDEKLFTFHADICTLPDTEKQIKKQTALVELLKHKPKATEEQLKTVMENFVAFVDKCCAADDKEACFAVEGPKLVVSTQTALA
T3 sequence (P17948 27-756 limits assumed): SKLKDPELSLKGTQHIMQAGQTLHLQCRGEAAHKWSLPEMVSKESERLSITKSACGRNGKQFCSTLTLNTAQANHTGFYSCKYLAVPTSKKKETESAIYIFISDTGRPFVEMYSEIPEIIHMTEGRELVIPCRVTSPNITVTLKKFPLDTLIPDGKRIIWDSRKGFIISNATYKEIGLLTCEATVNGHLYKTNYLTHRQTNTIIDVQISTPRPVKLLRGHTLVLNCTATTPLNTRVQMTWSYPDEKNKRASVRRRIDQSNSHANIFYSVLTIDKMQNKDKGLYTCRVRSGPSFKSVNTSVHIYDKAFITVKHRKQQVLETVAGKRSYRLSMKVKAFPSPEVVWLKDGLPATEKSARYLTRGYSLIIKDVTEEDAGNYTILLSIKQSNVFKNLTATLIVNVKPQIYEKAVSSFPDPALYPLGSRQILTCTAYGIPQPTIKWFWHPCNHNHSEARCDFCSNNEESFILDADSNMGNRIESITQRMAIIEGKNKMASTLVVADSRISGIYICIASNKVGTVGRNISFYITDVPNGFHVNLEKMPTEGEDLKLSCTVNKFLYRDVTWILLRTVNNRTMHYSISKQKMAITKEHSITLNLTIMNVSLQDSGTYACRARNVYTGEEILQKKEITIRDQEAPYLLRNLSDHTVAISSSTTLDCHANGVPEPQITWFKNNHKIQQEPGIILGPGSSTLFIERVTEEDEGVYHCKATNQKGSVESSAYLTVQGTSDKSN

B1: peptide 2 (ADGRVRGSWTWENGKWTWKGIIRLEQ) (peptide)
peptide: ADGRVRGSWTWENGKWTWKGIIRLEQ
notes: Synthetic in SPR; on phage in the colony ELISA; also called BPB2 peptide 2
The koff is a measure of how fast the partners let go of each other. The low end stands for slow dissociation, the high end for fast dissociation. A word on the kon: it is the second-order rate constant of association. What is called Kd is the concentration at which binding is half-saturated. A higher Kd goes with a looser complex. In [1], B1 displayed a dissociation rate constant (koff) of 0.01 s⁻¹ and an on-rate constant (kon) of 370000 M⁻¹ s⁻¹. Besides, the equilibrium dissociation constant (Kd) in [2] came out at 35 nM.

B2: Strep_opti2 (peptide)
peptide: WSHPQFEKGGGSWTWENGKWTWKGTLIHPM
As to B2, the binding result in experiment [3] is reported as “no binding”.

B3: VEGFR1_opti1 (peptide)
peptide: GNQWFIGGGSWTWENGKWTWKGRIPKNR
notes: Synthetic peptide in SPR; also called optimized peptide VEGFR1_opti1; KPI-BPB VEGFR1_opti1
On to B3, for which the “fold increase in affinity compared with the control peptide” value in experiment [4] was around 360 fold. In addition, the binding result in experiment [5] is listed as “no binding”.

B4: peptide 1 (WGGPVRGSWTWENGKWTWKGIIRLEQ) (peptide)
peptide: WGGPVRGSWTWENGKWTWKGIIRLEQ
notes: Synthetic in SPR; on phage in the colony ELISA; also called BPB2 peptide 1
In experiment [1], B4 had a dissociation rate constant (koff) of 0.02 s⁻¹ and an on-rate (kon) of 250000 M⁻¹ s⁻¹. The affinity in experiment [6], expressed as Kd, was 115 nM.

B5: VEGFR1_opti3 (peptide)
peptide: GNQWFIGGGSWTWENGKWTWKGQQAIQP
notes: also called KPI-BPB VEGFR1_opti3
On to B5, for which the binding result in experiment [5] is on record as “no binding”.

B6: streptavidin-binding peptide WSHPQFEK (peptide)
peptide: WSHPQFEK
notes: Synthetic control peptide in SPR; also called known peptide
Regarding B6, the Kd in experiment [7] was 82000 nM.

B7: VEGFR1_opti2 (peptide)
peptide: GNQWFIGGGSWTWENGKWTWKGKLQNPM
notes: also called KPI-BPB VEGFR1_opti2
On to B7, for which, in experiment [5], the binding result is reported as “no binding”.

B8: peptide 3 (CSSPIQGSWTWENGKWTWKGIIRLEQ) (peptide)
peptide: CSSPIQGSWTWENGKWTWKGIIRLEQ
notes: also called BPB2EDB; BPB2
For B8, in experiment [8], the equilibrium dissociation constant (Kd) was 16 nM, the off-rate (koff) was found to be 0.00051 s⁻¹ and the on-rate constant (kon) was determined as 30000 M⁻¹ s⁻¹.

B9: Strep_opti1 (peptide)
peptide: WSHPQFEKGGGSWTWENGKWTWKGAHPQVR
notes: Synthetic peptide in SPR
As to B9, in experiment [7], the Kd was 67 nM. For the same molecule, the binding result in experiment [3] is “no binding”. Moreover, the “fold increase in affinity compared with control peptide WSHPQFEK” value in [9] came out at 1220 fold.
